In paper PMC9293779, “Elucidation of binding preferences of YEATS domains to site-specific acetylated nucleosome core particles” (The Journal of Biological Chemistry, 2022):

Key:
[1] = target: H4K5/K8/K12/K16-tetra-acetylated NCP (human) (UniProt P04908); test: MST; YEATS domain labelled with a His-tag labeling kit; 10 mM Hepes-NaOH pH 7.4, 150 mM NaCl; room temperature; Monolith NT.115; fitted to the Hill equation, K1/2 = half-saturation concentration; biological triplicate
[2] = target: H4K5/K8-diacetylated NCP (human) (UniProt P04908); test: as above
[3] = target: H4K8/K12-diacetylated NCP (human) (UniProt P04908); test: as above
[4] = target: H4K5-acetylated NCP (human) (UniProt P04908); test: as above
[5] = target: H4K8-acetylated NCP (human) (UniProt P04908); test: as above
[6] = target: unmodified nucleosome core particle (NCP) (human) (UniProt P04908); test: as above
[7] = target: H3K9-acetylated NCP (human) (UniProt P04908); test: as above
[8] = target: H4K12-acetylated NCP (human) (UniProt P04908); test: as above
AF9-YEATS (human) = test: MST; conditions: NCP plate assay: 10 mM Tris-HCl pH 7.5, 150 mM NaCl, 25 C, 1 h, 5 pmol NCP, 25 pmol protein, MST buffer not in material
AF9-YEATS E57A (human) = test: MST; conditions: NCP plate assay: 10 mM Tris-HCl pH 7.5, 150 mM NaCl, 25 C, 1 h, 5 pmol NCP, 25 pmol protein, MST buffer not in material
GAS41-YEATS (human) = test: MST; conditions: NCP plate assay: 10 mM Tris-HCl pH 7.5, 150 mM NaCl, 25 C, 1 h, 5 pmol NCP, 25 pmol protein; MST buffer not in material
YEATS2-YEATS (human) = test: MST; conditions: NCP plate assay: 10 mM Tris-HCl pH 7.5, 150 mM NaCl, 25 C, 1 h, 5 pmol NCP, 25 pmol protein; MST buffer not in material
[9] = histone H4K5ac/K8ac/K12ac/K16ac

Chain of AF9-YEATS domain, polyhistidine-tagged (microscale thermophoresis) (P42568 1-138): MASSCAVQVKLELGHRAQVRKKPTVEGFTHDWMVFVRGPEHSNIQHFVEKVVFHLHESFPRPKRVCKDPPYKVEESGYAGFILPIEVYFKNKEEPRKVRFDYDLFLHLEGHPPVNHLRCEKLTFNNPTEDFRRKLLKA

With “AF9-YEATS E57A mutant (from UniProt P42568 1-138) (domain or fragment)” the fold increase in K1/2 against the WT [1] was 1.5 fold, the fold increase in K1/2 against the WT [2] was 1.8 fold and the fold increase in K1/2 against the WT [3] was 1.3 fold.

With “AF9-YEATS domain, polyhistidine-tagged (microscale thermophoresis) (from UniProt P42568 1-138) (domain or fragment)” the K1/2 (half-saturation concentration) [1] was 25 nM, the K1/2 (half-saturation concentration) [4] was 120 nM and the K1/2 (half-saturation concentration) [5] was 75 nM. For the same substance, the K1/2 (half-saturation concentration) [6] was 0.14 µM, the K1/2 (half-saturation concentration) [7] was 16 nM and the K1/2 (half-saturation concentration) [2] was 30 nM. For the same substance, the K1/2 (half-saturation concentration) [3] was 41 nM and the K1/2 (half-saturation concentration) [8] was 140 nM.

For “GAS41-YEATS domain, polyhistidine-tagged (microscale thermophoresis) (from UniProt O95619 15-159) (domain or fragment)”, the K1/2 (half-saturation concentration) [6] was 1.4 µM.

H3K9ac NCP gave a K half (AF9-YEATS (human); histone H3K9ac) of 16 nM.

H4K5ac NCP showed a K half (AF9-YEATS (human); histone H4K5ac) of 120 nM.

With H4K5ac/K8ac NCP the K half (AF9-YEATS (human); histone H4K5ac/K8ac) was 30 nM and the binding signal (fold K1/2 increase vs WT) (AF9-YEATS E57A (human); histone H4K5ac/K8ac) was 1.8.

H4K5ac/K8ac/K12ac/K16ac NCP gave a K half (AF9-YEATS (human); [9]) of 25 nM and a binding signal (fold K1/2 increase vs WT) (AF9-YEATS E57A (human); [9]) of 1.5.

With H4K8ac NCP the K half (AF9-YEATS (human); histone H4K8ac) was 75 nM.

H4K8ac/K12ac NCP showed a K half (AF9-YEATS (human); histone H4K8ac/K12ac) of 41 nM and a binding signal (fold K1/2 increase vs WT) (AF9-YEATS E57A (human); histone H4K8ac/K12ac) of 1.3.

H4K12ac NCP gave a K half (AF9-YEATS (human); histone H4K12ac) of 140 nM.

With “YEATS2-YEATS domain, polyhistidine-tagged (microscale thermophoresis) (from UniProt Q9ULM3 200-349) (domain or fragment)” the K1/2 (half-saturation concentration) [6] was 2.6 µM.

In the case of nucleosome-free 147-bp dsDNA, the K half (GAS41-YEATS (human)) is reported as over 50000 nM, the K half (AF9-YEATS (human)) is reported as 12000 nM and the K half (YEATS2-YEATS (human)) is reported as 8.2 µM.

Work on unmodified NCP yielded a K half (GAS41-YEATS (human)) of 1400 nM, a K half (AF9-YEATS (human)) of 140 nM and a K half (YEATS2-YEATS (human)) of 2.6 µM.
